{
  "source": "paper PMC8571288",
  "about": "(Nature Communications, 2021)",
  "binders": {"B1": {"name": "human RAD51 (natural protein, UniProt Q06609 1-339, looked up)", "chain": "MAMQMQLEANADTSVEEESFGPQPISRLEQCGINANDVKKLEEAGFHTVEAVAYAPKKELINIKGISEAKADKILAEAAKLVPMGFTTATEFHQRRSEIIQITTGSKELDKLLQGGIETGSITEMFGEFRTGKTQICHTLAVTCQLPIDRGGGEGKAMYIDTEGTFRPERLLAVAERYGLSGSDVLDNVAYARAFNTDHQTQLLYQASAMMVESRYALLIVDSATALYRTDYSGRGELSARQMHLARFLRMLLRLADEFGVAVVITNQVVAQVDGAAMFAADPKKPIGGNIIAHASTTRLYLRKGRGETRICKIYDSPCLPEAEAMFAINADGVGDAKD", "notes": "RAD51 recombinase, human"}},
  "key": {"[1]": {"molecular_target": "T1, CTC1Δ700N-ST complex (CTC1 lacking its N-terminal 700 residues, with STN1 and TEN1-His6) (human, UniProt Q2NKJ3 701-1217; Q9H668 1-368; Q86WV5 1-123)", "T1 construct": "CTC1, human, with the N-terminal 700 residues removed (CTC1Δ700N); STN1, human, subunit of the CST complex; TEN1, human, subunit of the CST complex; also called CTC1∆700N-ST; not shown: His6, C-terminal, kept; copies: + +", "T1 sequence (looked up) 1": "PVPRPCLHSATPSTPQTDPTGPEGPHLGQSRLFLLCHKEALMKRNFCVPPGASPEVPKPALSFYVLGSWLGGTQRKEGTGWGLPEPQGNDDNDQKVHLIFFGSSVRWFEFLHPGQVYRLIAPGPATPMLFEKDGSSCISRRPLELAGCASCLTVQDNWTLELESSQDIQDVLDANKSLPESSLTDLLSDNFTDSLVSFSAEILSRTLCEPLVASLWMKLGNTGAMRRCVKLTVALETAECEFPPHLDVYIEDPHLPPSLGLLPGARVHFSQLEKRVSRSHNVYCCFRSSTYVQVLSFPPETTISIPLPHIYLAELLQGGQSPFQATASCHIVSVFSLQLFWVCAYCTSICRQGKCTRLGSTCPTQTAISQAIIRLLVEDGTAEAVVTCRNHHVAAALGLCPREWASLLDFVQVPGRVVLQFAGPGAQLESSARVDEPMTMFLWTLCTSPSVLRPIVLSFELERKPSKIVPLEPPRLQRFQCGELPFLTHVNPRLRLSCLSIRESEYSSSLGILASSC", "T1 sequence (looked up) 2": "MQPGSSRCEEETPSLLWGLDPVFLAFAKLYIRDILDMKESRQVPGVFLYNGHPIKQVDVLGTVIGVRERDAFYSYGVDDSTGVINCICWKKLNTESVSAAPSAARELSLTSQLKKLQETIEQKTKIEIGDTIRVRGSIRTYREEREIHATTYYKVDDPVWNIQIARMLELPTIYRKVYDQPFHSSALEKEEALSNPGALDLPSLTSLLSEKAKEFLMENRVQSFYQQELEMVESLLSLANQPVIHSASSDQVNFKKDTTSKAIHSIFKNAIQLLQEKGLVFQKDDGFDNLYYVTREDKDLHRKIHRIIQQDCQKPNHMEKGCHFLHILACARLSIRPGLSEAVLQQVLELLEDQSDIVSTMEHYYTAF", "T1 sequence (looked up) 3": "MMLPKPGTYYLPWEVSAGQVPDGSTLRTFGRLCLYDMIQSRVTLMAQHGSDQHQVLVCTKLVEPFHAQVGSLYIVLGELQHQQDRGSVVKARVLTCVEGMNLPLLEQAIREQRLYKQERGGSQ", "experiment": "pull-down; 1 μM CST or CTC1Δ700N-ST (His6 on TEN1) with 1 μM RAD51, RecA or RPA, 20 min 37 °C, buffer D (35 mM Tris-HCl pH 7.5, 10% glycerol, 0.01% Igepal, 1 mM 2-mercaptoethanol) with 5 mM imidazole and 50 mM KCl; for RPA without DNA or with 2 μM 30-nt ssDNA; captured on His-Tag Dynabeads; SDS-PAGE, Coomassie", "conditions": "both partners purified"}, "[2]": {"molecular_target": "T2, human CST complex (Flag-CTC1-STN1-TEN1-His6) (human, UniProt Q2NKJ3 1-1217; Q9H668 1-368; Q86WV5 1-123)", "T2 construct": "CTC1, human, subunit of the CST complex; STN1, human, subunit of the CST complex; TEN1, human, subunit of the CST complex; also called wild-type CST; not shown: Flag, N-terminal, kept; His6, C-terminal, kept; copies: + +", "experiment": "pull-down; 1 μM CST or CTC1Δ700N-ST (His6 on TEN1) with 1 μM RAD51, RecA or RPA, 20 min 37 °C, buffer D (35 mM Tris-HCl pH 7.5, 10% glycerol, 0.01% Igepal, 1 mM 2-mercaptoethanol) with 5 mM imidazole and 50 mM KCl; for RPA without DNA or with 2 μM 30-nt ssDNA; captured on His-Tag Dynabeads; SDS-PAGE, Coomassie", "conditions": "both partners purified"}},
  "data": [
    {"binder": "B1", "values": [
      {"measurement": "binding result", "setting": "[1]", "value": "binds"},
      {"measurement": "binding result", "setting": "[2]", "value": "binds"}
    ]}
  ]
}
